Laboratory results: US20260056193A1 (SEER, published 2026)
No end group written: not given here.

Key:
Assay in all cases: LC-MS/MS of proteins captured from pooled plasma by peptide-modified nanoparticles
E7EQ47 = target: T1, E7EQ47
T1 construct: Protein found in pooled plasma by LC-MS/MS; only the UniProt ID is printed
Protocol: (§1) Provided herein are proteins that are captured by surfaces modified with peptides described herein. Briefly, surfaces are modified with the 10K-peptide-MaganinII. Pooled plasma samples containing proteins and the modified surfaces are combined and the surfaces are isolated and captured proteins are analyzed by liquid chromatography tandem mass spectrometry. The nanoparticle prepared in Example 5 was used and selected proteins that include those in Table 9. These proteins were captured by the peptide-modified surface, but not surfaces without peptide modification.

A0A0C4DGL1 = target: T2, A0A0C4DGL1
T2 construct: Protein found in pooled plasma by LC-MS/MS; only the UniProt ID is printed
Protocol: as §1

A0A075B6K0 = target: T3, A0A075B6K0
T3 construct: Protein found in pooled plasma by LC-MS/MS; only the UniProt ID is printed
T3 sequence (A0A075B6K0 20-115): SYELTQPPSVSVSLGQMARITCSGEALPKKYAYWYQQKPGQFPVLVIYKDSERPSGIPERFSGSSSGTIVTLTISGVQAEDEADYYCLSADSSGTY
Protocol: as §1

A0A0C4DH33 = target: T4, A0A0C4DH33
T4 construct: Protein found in pooled plasma by LC-MS/MS; only the UniProt ID is printed
T4 sequence (A0A0C4DH33 20-117): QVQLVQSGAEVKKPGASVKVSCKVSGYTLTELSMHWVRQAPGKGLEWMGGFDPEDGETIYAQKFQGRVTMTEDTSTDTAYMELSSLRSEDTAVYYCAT
Protocol: as §1

F8W7Q4 = target: T5, F8W7Q4
T5 construct: Protein found in pooled plasma by LC-MS/MS; only the UniProt ID is printed
Protocol: as §1

B1: 10K peptide-MaganinII coupled to Surface 428 nanoparticle (Surface 428-MaganinII) (peptide)
peptide: KKKKKKKKKKGIGKFLHSAKKFGKAFVGEIMNS
modifications: not fully specified; also: coupled through Sulfo-SMCC (maleimide) to thiols of Surface 428 nanoparticle, amine carrying SMCC not given here
notes: Many copies of the peptide stand on one nanoparticle; also called SMCC-MagaininII
- Median Intensity (E7EQ47): 3.5
- Median Intensity (A0A0C4DGL1): 3.62
- Median Intensity (A0A075B6K0): 3.81
- Median Intensity (A0A0C4DH33): 3.89
- Median Intensity (F8W7Q4): 3.55
